Results taken from patent publication US9228020B2, “Compositions and methods for diagnosing and treating cancer” (OncoMed Pharmaceuticals, Inc., priority 2006, dated 2016).

B1: 21M18 H7L2: humanized 21M18, heavy chain Kabat position 52a serine (H7) with L2; ATCC deposit no. PTA-8425 (antibody, V domains shown)
VH: QVQLVQSGAEVKKPGASVKISCKASGYSFTAYYIHWVKQAPGQGLEWIGYISSYNGATNYNQKFKGRVTFTTDTSTSTAYMELRSLRSDDTAVYYCARDYDYDVGMDYWGQGTLVTVSS
VL: DIVMTQSPDSLAVSLGERATISCRASESVDNYGISFMKWFQQKPGQPPKLLIYAASNQGSGVPDRFSGSGSGTDFTLTISSLQAEDVAVYYCQQSKEVPWTFGGGTKVEIK
B2: 21M18 H9L2: humanized 21M18, heavy chain Kabat position 52a valine (H9) with L2; ATCC deposit no. PTA-8427 (antibody, V domains shown)
VH: QVQLVQSGAEVKKPGASVKISCKASGYSFTAYYIHWVKQAPGQGLEWIGYISVYNGATNYNQKFKGRVTFTTDTSTSTAYMELRSLRSDDTAVYYCARDYDYDVGMDYWGQGTLVTVSS
VL: DIVMTQSPDSLAVSLGERATISCRASESVDNYGISFMKWFQQKPGQPPKLLIYAASNQGSGVPDRFSGSGSGTDFTLTISSLQAEDVAVYYCQQSKEVPWTFGGGTKVEIK

Biological target: T1, DLL4 antigen (Homo sapiens, UniProt Q9NR61)
T1 construct: DLL4 antigen protein comprises approximately amino acid 27 through amino acid 522; made in house; host or cells: insect cells (baculovirus)
Assay: ELISA of conditioned media for DLL4 antigen binding (humanized variants)
Details: conditioned media of cotransfected HEK293 cells
Description: The functionality of each candidate variant humanized heavy and light chain was tested by cotransfection into mammalian cells. Each of the five candidate humanized 21M18 heavy chains described above was cotransfected with the murine 21M18 light chain cDNA into HEK 293 cells, and conditioned media was then assayed for DLL4 antigen binding activity by ELISA. […] This variant—“21M18 H2”—contained, in additional to murine CDRs, murine residues at five framework positions, Kabat positions 20, 28, 38, 48, and 69 (FIG. 4). The 21M18 H2 humanized heavy chain was then cotransfected with each of the five candidate humanized light chains into HEK293 cells, and conditioned media was again assayed for antigen binding by ELISA.
Next, the isolated cysteine residue in CDR2H2 (SEQ ID NO: 2) was altered. Specifically, two heavy chain variants of H2 were synthesized with the cysteine residue at Kabat position 52a modified to a serine (variant H7; SEQ ID NO: 3) or a valine (variant H9; SEQ ID NO: 4) residue. These heavy chains were cotransfected into HEK293 cells with L2, and conditioned media was again assayed. […] Thus 21M18 heavy chain CDR2 comprises SEQ ID NO: 2, 3, or 4 in which the residue at Kabat position 52a comprises a cysteine, serine, or valine residue.

T1 sequence (Q9NR61 27-522): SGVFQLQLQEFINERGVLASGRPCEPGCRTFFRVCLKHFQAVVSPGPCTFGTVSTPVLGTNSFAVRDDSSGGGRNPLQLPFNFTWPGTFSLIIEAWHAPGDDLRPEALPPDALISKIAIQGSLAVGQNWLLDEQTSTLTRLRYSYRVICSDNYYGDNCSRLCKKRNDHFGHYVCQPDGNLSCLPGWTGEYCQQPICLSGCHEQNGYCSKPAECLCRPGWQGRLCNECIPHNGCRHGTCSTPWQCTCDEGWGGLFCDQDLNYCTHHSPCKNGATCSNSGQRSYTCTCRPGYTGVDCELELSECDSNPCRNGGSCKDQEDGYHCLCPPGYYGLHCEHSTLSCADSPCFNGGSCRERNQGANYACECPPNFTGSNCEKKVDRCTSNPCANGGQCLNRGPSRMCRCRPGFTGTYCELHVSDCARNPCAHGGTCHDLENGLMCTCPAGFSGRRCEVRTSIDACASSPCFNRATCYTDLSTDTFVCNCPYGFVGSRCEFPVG

| Molecule | antigen binding by ELISA |
| --- | --- |
| B1 | demonstrated specific antigen binding |
| B2 | demonstrated specific antigen binding |
